These results are taken from the supplement of paper PMC11246515.

The data set is described as follows: total protein half-life in vivo (active degradation + dilution); higher = more stable protein.
[1] abbreviates: wild type E. coli NCM3722, growth: C-lim chemostat, doubling time 3 h.
The mark [2] stands for this setting: wild type E. coli NCM3722, growth: C-lim chemostat, doubling time 6 h.
Setting [3] is: wild type E. coli NCM3722, growth: C-lim chemostat, doubling time 12 h.
The mark [4] stands for this setting: wild type E. coli NCM3722, growth: P-lim chemostat, doubling time 6 h.
The mark [5] stands for this setting: E. coli NCM3722 delta-clpP delta-lon delta-hslV, growth: N-lim chemostat, doubling time 6 h.
The mark [6] stands for this setting: E. coli NCM3722 delta-clpP, growth: N-lim chemostat, doubling time 6 h.
Setting [7] is: E. coli NCM3722 delta-hslV, growth: N-lim chemostat, doubling time 6 h.
Where [8] appears, read: E. coli NCM3722 delta-lon, growth: N-lim chemostat, doubling time 6 h.
Where [9] appears, read: E. coli NCM3722 delta-smpB, growth: N-lim chemostat, doubling time 6 h.
[10] abbreviates: wild type E. coli NCM3722, growth: N-lim chemostat, doubling time 6 h.
The mark [11] stands for this setting: wild type E. coli NCM3722, growth: N-lim chemostat, doubling time 12 h.
Where [12] appears, read: wild type E. coli NCM3722, growth: P-lim chemostat, doubling time 12 h.

± gives the standard deviation of the averaged measurements.

On to “MKTLNRRDFPGAQYPERIIQFGEGNFLRAFVDWQIDLLNEHTDLNSGVVVVRPIETSFPPSLSTQDGLYTTIIRGLNEKGEAVSDARLIRSVNREISVYSEYDEFLKLAHNPEMRFVFSNTTEAGISYHAGDKFDDAPAVSYPAKLTRLLFERFSHFNGALDKGWIIIPCELIDYNGDALRELVLRYAQEWALPEAFIQWLDQANSFCSTLVDRIVTGYPRDEVAKLEEELGYHDGFLDTAEHFYLFVIQGPKSLATELRLDKYPLNVLIVDDIKPYKERKVAILNGAHTALVPVAFQAGLDTVGEAMNDAEICAFVEKAIYEEIIPVLDLPRDELESFASAVTGRFRNPYIKHQLLSIALNGMTKFRTRILPQLLAGQKANGTLPARLTFALAALIAFYRGERNGETYPVQDDAHWLERYQQLWSQHRDRVIGTQELVAIVLAEKDHWEQDLTQVPGLVEQVANDLDAILEKGMREAVRPLC [P0A6L7]”, for which the “total protein half-life in vivo” value amounted to 3.15 ± 0.18 h under setting [1], 4.58 ± 0.071 h under setting [2], 8.15 ± 1.3 h under setting [3] and 5.26 ± 0.51 h under setting [4].

As to “MSNTYQKRKASKEYGLYNQCKKLNDDELFRLLDDHNSLKRISSARVLQLRGGQDAVRLAIEFCSDKNYIRRDIGAFILGQIKICKKCEDNVFNILNNMALNDKSACVRATAIESTAQRCKKNPIYSPKIVEQSQITAFDKSTNVRRATAFAISVINDKATIPLLINLLKDPNGDVRNWAAFAININKYDNSDIRDCFVEMLQDKNEEVRIEAIIGLSYRKDKRVLSVLCDELKKNTVYDDIIEAAGELGDKTLLPVLDTMLYKFDDNEIITSAIDKLKRS [P0ADK6]”, the “total protein half-life in vivo” value under setting [5] stood at 5.51 ± 0.25 h; the “total protein half-life in vivo” value under setting [6] came out at 4.904 ± 0.018 h; the “total protein half-life in vivo” value under setting [7] was determined as 2.92 ± 1.5 h; the “total protein half-life in vivo” value under setting [8] worked out at 2.68 ± 0.43 h; the “total protein half-life in vivo” value under setting [9] worked out at 1.77 ± 0.26 h; the “total protein half-life in vivo” value under setting [1] stood at 2.016 ± 0.02 h. Also, the “total protein half-life in vivo” value by setting is: under setting [2], 3.9 ± 0.61 h; under setting [3], 5.23 ± 0.093 h; under setting [10], 2.17 ± 0.22 h; under setting [11], 2.62 ± 0.074 h; under setting [4], 2.65 ± 0.32 h; under setting [12], 4.89 ± 1 h.

“MTESVARLRGEQLTLGYGKYTVAENLTVEIPDGHFTAIIGPNGCGKSTLLRTLSRLMTPAHGHVWLDGEHIQHYASKEVARRIGLLAQNATTPGDITVQELVARGRYPHQPLFTRWRKEDEEAVTKAMQATGITHLADQSVDTLSGGQRQRAWIAMVLAQETAIMLLDEPTTWLDISHQIDLLELLSELNREKGYTLAAVLHDLNQACRYASHLIALREGKIVAQGAPKEIVTAELIERIYGLRCMIIDDPVAGTPLVVPLGRTAPSTANS”: the “total protein half-life in vivo” value was 3.69 h under setting [9]; 3.78 h under setting [1]; 5.57 h under setting [2]; over 16 h under setting [3]; 7.66 h under setting [11].

For “MLLSIITVAFRNLEGIVKTHASLAHLAQVEDISFEWIVVDGGSNDGTREYLENLNGIFNLRFVSEPDNGIYDAMNKGIAMAQGKFALFLNSGDIFHQNAANFVRKLKMQKDNVMITGDALLDFGDGHKIKRSAKPGWYIYHSLPASHQAIFFPVSGLKKWRYDLEYKVSSDYALAAKMYKAGYAFKKLNGLVSEFSMGGVSTTNNMELCADAKKVQRQILHVPGFWAELSWHLRQRTTSKTKALYNKV”, the “total protein half-life in vivo” value under setting [5] is 4.85 ± 0.28 h, the “total protein half-life in vivo” value under setting [8] was found to be 1.5 ± 0.23 h and the “total protein half-life in vivo” value under setting [9] is 0.818 ± 0.0095 h.

With “MSEKSIVQEARDIQLAMELITLGARLQMLESETQLSRGRLIKLYKELRGSPPPKGMLPFSTDWFMTWEQNVHASMFCNAWQFLLKTGLCNGVDAVIKAYRLYLEQCPQAEEGPLLALTRAWTLVRFVESGLLQLSSCNCCGGNFITHAHQPVGSFACSLCQPPSRAVKRRKLSQNPADIIPQLLDEQRVQAV [P0ABY7]”, the “total protein half-life in vivo” value is, setting by setting: under setting [5], over 8 h; under setting [6], 4.44 h; under setting [1], 0.252 h; under setting [2], 0.52 h.

Turning to “MTEAQRHQILLEMLAQLGFVTVEKVVERLGISPATARRDINKLDESGKLKKVRNGAEAITQQRPRWTPMNLHQAQNHDEKVRIAKAASQLVNPGESVVINCGSTAFLLGREMCGKPVQIITNYLPLANYLIDQEHDSVIIMGGQYNKSQSITLSPQGSENSLYAGHWMFTSGKGLTAEGLYKTDMLTAMAEQKMLSVVGKLVVLVDSSKIGERAGMLFSRADQIDMLITGKNANPEILQQLEAQGVSILRV [P0A9W0]”, the “total protein half-life in vivo” value runs as follows: under setting [5], 5.74 ± 0.06 h; under setting [6], 5.84 ± 0.28 h; under setting [7], 6.01 ± 0.41 h; under setting [8], 5.66 ± 0.8 h; under setting [9], 5.95 ± 0.36 h; under setting [1], 3.08 ± 0.11 h. Moreover, the “total protein half-life in vivo” value was determined as 6 ± 0.48 h under setting [2]; 10.6 ± 1.7 h under setting [3]; 5.68 ± 0.2 h under setting [10]; 10.9 ± 0.72 h under setting [11]; 6.75 ± 1.5 h under setting [4]; 13.3 ± 0.25 h under setting [12].

Consider “MVSRKRNSVIYRFASLLLVLMLSACSALQGTPQPAPPVTDHPQEIRRDQTQGLQRIGSVSTMVRGSPDDALAEIKAKAVAAKADYYVVVMVDETIVTGQWYSQAILYRK”, for which the “total protein half-life in vivo” value came to 5.47 ± 0.3 h under setting [5]; 6.25 ± 1 h under setting [6]; 7.06 h under setting [7]; 6.07 ± 0.52 h under setting [8]; 5.58 ± 0.19 h under setting [9]; 3.29 ± 0.23 h under setting [1]. Also, the “total protein half-life in vivo” value was determined as 11.6 ± 1.4 h under setting [3], 6.049 ± 0.053 h under setting [10], 7.24 ± 1.1 h under setting [4] and 14.8 h under setting [12].

Turning to “MENLARFLSTTLKQLRQQRGWSLSRLAEATGVSKAMLGQIERNESSPTVATLWKIATGLNVPFSTFISPPQSATPSVYDPQQQAMVITSLFPYDPQLCFEHFSIQMASGAISESTPHEKGVIEHVVVIDGQLDLCVDGEWQTLNCGEGVRFAADVTHIYRNGGEQTVHFHSLIHYPRS”, the “total protein half-life in vivo” value runs as follows: under setting [5], 5.69 ± 0.83 h; under setting [6], 4.59 ± 0.28 h; under setting [7], 4.71 ± 0.22 h; under setting [8], 5.58 ± 0.23 h; under setting [9], 5.33 ± 1.1 h; under setting [1], 3.4 ± 0.15 h. Moreover, the “total protein half-life in vivo” value stood at 5.27 ± 0.69 h under setting [2]; 10.1 ± 0.49 h under setting [3]; 4.52 ± 0.93 h under setting [10]; 7.78 ± 0.9 h under setting [11]; 6.27 ± 1.1 h under setting [4]; 9.9 ± 0.44 h under setting [12].

For the sequence “MKTMLAAYLPGNSTVDLREVAVPTPGINQVLIKMKSSGICGSDVHYIYHQHRATAAAPDKPLYQGFINGHEPCGQIVAMGQGCRHFKEGDRVLVYHISGCGFCPNCRRGFPISCTGEGKAAYGWQRDGGHAEYLLAEEKDLILLPDALSYEDGAFISCGVGTAYEGILRGEVSGSDNVLVVGLGPVGMMAMMLAKGRGAKRIIGVDMLPERLAMAKQLGVMDHGYLATTEGLPQIIAELTHGGADVALDCSGNAAGRLLALQSTADWGRVVYIGETGKVEFEVSADLMHHQRRIIGSWVTSLFHMEKCAHDLTDWKLWPRNAITHRFSLEQAGDAYALMASGKCGKVVINFPD”, the “total protein half-life in vivo” value runs as follows: under setting [5], 4.41 ± 0.15 h; under setting [6], 2.87 h; under setting [7], 2.466 ± 0.011 h; under setting [8], 2.619 ± 0.012 h; under setting [9], 1.84 ± 1.1 h; under setting [2], 2.74 h. The “total protein half-life in vivo” value stood at 5.33 ± 3.6 h under setting [3]; 2.17 ± 0.04 h under setting [10]; 3.6 ± 0.11 h under setting [11]; 4.27 ± 0.51 h under setting [4]; 8.54 ± 2.2 h under setting [12].
